This assay has as its target Zt-KP4-1 (Zt-NIP1) (Zymoseptoria tritici). Briefly: SEC. For orientation: Size exclusion chromatography separates by hydrodynamic size, large species first.

The term stoichiometry N denotes a count of units in the complex or per binding partner. Turning to Zt-KP4-1 (Zt-NIP1) (natural protein), the stoichiometry N worked out at 2.
